Biological target: Strep-tagged recombinant plasminogen activator inhibitor 1 (PAI-1) (human) (UniProt P05121)
Assay: pull-down; affinity chromatography: purified Strep-tagged PAI-1 (75 µL, 100 µg/mL) immobilised on Strep-Tactin Sepharose gravity flow columns; 2.0 mL medium with untagged vitronectin loaded and incubated 1 h; six washes with Buffer W, elution with Buffer E; Western blot with densitometry

Chain of UniProt P05121 (P05121 24-402): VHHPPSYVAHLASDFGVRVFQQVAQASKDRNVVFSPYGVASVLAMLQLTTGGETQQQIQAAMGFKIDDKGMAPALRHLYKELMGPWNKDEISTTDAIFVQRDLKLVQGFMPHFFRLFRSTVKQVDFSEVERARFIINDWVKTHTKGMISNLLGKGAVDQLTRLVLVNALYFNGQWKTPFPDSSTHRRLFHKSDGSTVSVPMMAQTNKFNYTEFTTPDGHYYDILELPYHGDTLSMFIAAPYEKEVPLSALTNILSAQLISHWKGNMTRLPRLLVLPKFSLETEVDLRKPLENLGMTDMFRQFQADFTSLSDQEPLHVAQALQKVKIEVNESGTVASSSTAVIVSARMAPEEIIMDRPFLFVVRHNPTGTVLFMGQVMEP

“untagged vitronectin isoform VTN_rs704: T (AMD risk-associated, Met400) (natural protein)” was tested. Which fold of vitronectin in the elution fraction against VTN rs704: C did it give?
Its fold of vitronectin in the elution fraction against VTN rs704: C is 2.28 fold.

Source: publication PMC9179922
